For 1 molecule, binding signal results are on record in article PMC3033579.

One data set addresses T1, SSB (Bacillus subtilis, UniProt P37455 1-172).
T1 sequence: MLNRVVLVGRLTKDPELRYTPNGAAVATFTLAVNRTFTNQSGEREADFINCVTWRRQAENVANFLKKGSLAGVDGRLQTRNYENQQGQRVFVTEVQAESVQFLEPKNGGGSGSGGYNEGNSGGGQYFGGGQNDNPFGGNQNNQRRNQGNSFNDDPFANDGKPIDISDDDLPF
Briefly: EMSA.

A further data set has as its target T2, DnaD (Bacillus subtilis, UniProt P39787 1-232).
T2 sequence: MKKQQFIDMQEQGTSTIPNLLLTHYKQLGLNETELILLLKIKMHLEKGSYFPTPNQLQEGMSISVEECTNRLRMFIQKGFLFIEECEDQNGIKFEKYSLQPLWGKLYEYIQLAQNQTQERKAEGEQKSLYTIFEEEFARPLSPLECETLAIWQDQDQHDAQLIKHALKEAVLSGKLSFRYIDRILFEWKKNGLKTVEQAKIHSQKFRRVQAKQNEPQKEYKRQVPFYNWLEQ
Kind of data set: EMSA.

For the molecule TTACACAGTAACTCATATGCTTCGCTATTACGCC (ssDNA) [34mer oligonucleotide], the binding signal with SSB was 600 fold higher affinity than Cd and DnaD; with DnaD it was 600 fold lower affinity than SSB.
